For one substance, Kd results are on record in paper PMC9704693.

The target in the assay is extracellular fragment of lymphotoxin-beta receptor (LTβR) (629-LR-100, R&D Systems) (UniProt P36941). The assay is described as follows: SPR. In general terms: SPR reads the build-up and loss of mass on a sensor chip optically.

One may read the Kd as the constant that tells how readily two partners part at equilibrium. Low values mean tighter binding, high ones weaker binding. Turning to “Ixodes persulcatus salivary protein (IpSAP), recombinant (natural protein)”, the Kd was 124 nM.
